Laboratory results from paper PMC6054379.

How the values were obtained:
[1] = target: Staphylococcus aureus protein A (Staphylococcus aureus) (UniProt P38507); assay: particle-based immunoassay read by flow cytometry; protein A covalently coupled (EDC/sulfo-NHS) to 6 μm (PAH/PAA)2 polyelectrolyte microcapsules; 10 μg purified BBM.1 in 1 mL PBS pH 8.2, 2 h; detected with GαM-AF488; dose-response also in PBS pH 7.2 and complete RPMI
[2] = target: Staphylococcus aureus protein A (Staphylococcus aureus) (UniProt P38507); assay: particle-based immunoassay read by flow cytometry; protein A covalently coupled (EDC/sulfo-NHS) to 2.35 μm carboxylated PS beads; 10 μg purified BBM.1 in 1 mL PBS pH 8.2, 2 h; detected with GαM-AF488

**Q.** How did the mean fluorescence intensity (MFI) [1] turn out when murine monoclonal antibody BBM.1 was run?
**A.** 33.5

**Q.** And the mean fluorescence intensity (MFI) [2]?
**A.** 12.2
